Assay results reported in patent US20260217797A1.

Legend:
[1] = target: SARS-CoV-2 P.1 Spike (Gamma) (SARS-CoV-2) (UniProt P0DTC2); test: Octet BLI single point, monovalent
[2] = target: SARS-CoV-2 B.1.617.1 (Kappa) RBD (SARS-CoV-2) (UniProt P0DTC2); test: Octet BLI single point, monovalent
[3] = target: SARS-CoV-2 B.1.617.2 (Delta) RBD (SARS-CoV-2) (UniProt P0DTC2); test: Octet BLI single point, monovalent
[4] = target: SARS-CoV-2 B.1.351 (Beta) RBD (SARS-CoV-2) (UniProt P0DTC2); test: Octet BLI single point, monovalent
[5] = target: SARS-CoV-2 Beta (B.1.351) spike protein (on reporter virus particles) (SARS-CoV-2) (UniProt P0DTC2); test: cell-based or functional assay
[6] = target: SARS-CoV-2 Epsilon (B.1.427/429) spike protein (on reporter virus particles) (SARS-CoV-2) (UniProt P0DTC2); test: cell-based or functional assay
[7] = target: SARS-CoV-2 Alpha (B.1.1.7) spike protein (on reporter virus particles) (SARS-CoV-2) (UniProt P0DTC2); test: cell-based or functional assay
[8] = target: SARS-CoV-2 Gamma (P.1) spike protein (on reporter virus particles) (SARS-CoV-2) (UniProt P0DTC2); test: cell-based or functional assay

Substance | Kd [1] [µM] | Kd [2] [µM] | Kd [3] [µM] | Kd [4] [µM] | PsV neutralization IC50 [5] [µg/mL] | PsV neutralization IC90 [5] [µg/mL] | PsV neutralization IC50 [6] [µg/mL] | PsV neutralization IC90 [6] [µg/mL] | PsV neutralization IC50 [7] [µg/mL] | PsV neutralization IC90 [7] [µg/mL] | PsV neutralization IC50 [8] [µg/mL] | PsV neutralization IC90 [8] [µg/mL]
RGN10987 (antibody) | 0.0125 | 0.00305 | 0.00965 | 0.015 |  |  |  |  |  |  |  | 
RGN10933 (antibody) |  | 0.012 | 0.0027 |  | 0.897 | 8.28 | 0.0074 | 0.058 | 0.0064 | 0.081 | 3.89 | 16.2
